Measured values: patent US9163218B2, “Method for increasing the efficiency of inducing pluripotent stem cells” (GUANGZHOU INSTITUTES OF BIOMEDICINE AND HEALTH, CHINESE …, priority 2011, dated 2015)

B1: Jhdm1a: member of the JmjC-domain-containing histone demethylase family, expressed from pMXs-FLAG retroviral vector (SEQ ID NO: 1 / 7) (protein)
chain: MEPEEERIRYSQRLRGTMRRRYEDDGISDDEIEGKRTFDLEEKLQTNKYNANFVTFMEGKDFNVEYIQRGGLRDPLIFKNSDGLGIKMPDPDFTVNDVKMCVGSRRMVDVMDVNTQKGIEMTMAQWTRYYETPEEEREKLYNVISLEFSHTRLENMVQRPSTVDFIDWVDNMWPRHLKESQTESTNAILEMQYPKVQKYCLMSVRGCYTDFHVDFGGTSVWYHIHQGGKVFWLIPPTAHNLELYENWLLSGKQGDIFLGDRVSDCQRIELKQGYTFVIPSGWIHAVYTPTDTLVFGGNFLHSFNIPMQLKIYSIEDRTRVPNKFRYPFYYEMCWYVLERYVYCITNRSHLTKDFQKESLSMDMELNELESGNGDEEGVDREARRMNNKRSVLTSPVANGVNLDYDGLGKACRSLPSLKKTLSGDSSSDSTRGSHNGQVWDPQCSPKKDRQVHLTHFELEGLRCLVDKLESLPLHKKCVPTGIEDEDALIADVKILLEELASSDPKLALTGVPIVQWPKRDKLKFPTRPKVRVPTIPITKPHTMKPAPRLTPVRPAAASPIVSGARRRRVRCRKCKACVQGECGVCHYCRDMKKFGGPGRMKQSCVLRQCLAPRLPHSVTCSLCGEVDQNEETQDFEKKLMECCICNEIVHPGCLQMDGEGLLNEELPNCWECPKCYQEDSSDKAQKRKIEESDEEAVQAKVLRPLRSCEEPLTPPPHSPTSMLQLIHDPVSPRGMVTRSSPGAGPSDHHSASRDERFKRRQLLRLQATERTMVREKENNPSGKKELSEVEKAKIRGSYLTVTLQRPTKELHGTSIVPKLQAITASSANLRPNPRVLMQHCPARNPQHGDEEGLGGEEEEEEEEEEDDSAEEGGAARLNGRGSWAQDGDESWMQREVWMSVFRYLSRKELCECMRVCKTWYKWCCDKRLWTKIDLSRCKAIVPQALSGIIKRQPVSLDLSWTNISKKQLTWLVNRLPGLKDLLLAGCSWSAVSALSTSSCPLLRTLDLRWAVGIKDPQIRDLLTPPTDKPGQDNRSKLRNMTDFRLAGLDITDATLRLIIRHMPLLSRLDLSHCSHLTDQSSNLLTAVGSSTRYSLTELNMAGCNKLTDQTLFFLRRIANVTLIDLRGCKQITRKACEHFISDLSINSLYCLSDEKLIQKIS
modifications: FLAG tag; nucleotide acid sequence of coding regions for kdm2a
B2: Jhdm1b: member of the JmjC-domain-containing histone demethylase family, expressed from pMXs-FLAG retroviral vector (SEQ ID NO: 2 / 8) (protein)
chain: MEAEKDSGRRLRAIDRQRYDENEDLSDVEEIVSVRGFSLEEKLRSQLYQGDFVHAMEGKDFNYEYVQREALRVPLVFRDKDGLGIKMPDPDFTVRDVKLLVGSRRLVDVMDVNTQKGTEMSMSQFVRYYETPEAQRDKLYNVISLEFSHTKLEHLVKRPTVVDLVDWVDNMWPQHLKEKQTEATNALAEMKYPKVKKYCLMSVKGCFTDFHIDFGGTSVWYHVFRGGKIFWLIPPTLHNLALYEEWVLSGKQSDIFLGDRVERCQRIELKQGYTFFIPSGWIHAVYTPVDSLVFGGNILHSFNVPMQLRIYEIEDRTRVQPKFRYPFYYEMCWYVLERYVYCVTQRSYLTQEYQRELMLIDAPRKTSVDGFSSDSWLDMEEESCEQQPQEEEEEEEDKEEEGDGADKTPKPPTDDPTSPTSTPPEDQDSTGKKPKAPAIRFLKRTLSNESEESVKSTSMPTDDPKTPTGSPATEVSTKWTHLTEFELKGLKALVEKLESLPENKKCVPEGIEDPQALLEGVKNVLKEHVDDDPTLAITGVPVVSWPKKTAKNRVVGRPKGKLGPASAVKLAANRTTAGARRRRTRCRKCEACLRTECGECHFCKDMKKFGGPGRMKQSCIMRQCIAPVLPHTAVCLVCGEAGKEDTVEEEEGKFNLMLMECSICNEIIHPGCLKIKESEGVVNDELPNCWECPKCNHAGKTGKQKRGPGFKYASNLPGSLLKEQKMNRDNKEGQEPAKRRSECEEAPRRRSDEHPKKVPADGILRRKSDDVHLRRKRKYEKPQELSGRKRASSLQTSPGSSSHLSPRPPLGSSLSPWWRSSLTYFQQQLKPGKEDKLFRKKRRSWKNAEDRLSLANKPLRRFKQEPEDDLPEAPPKTRESDQSRSSSPTAGPSTEGAEGPEEKKKVKMRRKRRLVNKELSKELSKELNHEIQKTESTLAHESQQPIKSEPESENDEPKRPLSHCERPHRFSKGLNGTPRELRHSLGPGLRSPPRVMSRPPPSASPPKCIQMERHVIRPPPISPPPDSLPLDDGAAHVMHREVWMAVFSYLSHRDLCVCMRVCRTWNRWCCDKRLWTRIDLNRCKSITPLMLSGIIRRQPVSLDLSWTNISKKQLSWLINRLPGLRDLVLSGCSWIAVSALCSSSCPLLRTLDVQWVEGLKDAQMRDLLSPPTDNRPGQMDNRSKLRNIVELRLAGLDITDVSLRLIIRHMPLLSKLQLSYCNHINDQSINLLTAVGTTTRDSLTEVNLSDCNKVTDLCLSFFKRCGNICHIDLRYCKQVTKEGCEQFIAEMSVSVQFGQVEEKLLQKLS
modifications: FLAG tag; nucleotide acid sequence of coding regions for kdm2b

System: OG2 mouse embryonic fibroblasts
Experiment: Induction of pluripotent stem cells (reprogramming) from OG2 mouse embryonic fibroblasts; GFP fluorescence clones counted
Format: cell-based
Details: for induction of pluripotent stem cells with only SO, KO or Oct4: Jhdm1a and Jhdm1b together, mES medium with 50 μg/ml vitamin C, FIG. 3; for induction of pluripotent stem cells with only SO, KO or Oct4 / efficiency of reprogramming (inducing pluripotent stem cells) mediated by SKO / efficiency of reprogramming (inducing pluripotent stem cells) mediated by SKOM: control pMXs-FLAG empty vector; for efficiency of reprogramming (inducing pluripotent stem cells) mediated by SKO: with Klf4, Sox2, Oct4 (SKO); for efficiency of reprogramming (inducing pluripotent stem cells) mediated by SKO / efficiency of reprogramming (inducing pluripotent stem cells) mediated by SKOM: whether vitamin C present or not; for efficiency of reprogramming (inducing pluripotent stem cells) mediated by SKOM: with Klf4, Sox2, c-Myc, Oct4 (SKOM)

Row | Molecule | effect of vitamin C on reprogramming by Oct4 with Jhdm1b (Oct4 + Jhdm1b (OB), vitamin C present) | effect of vitamin C on improvement of reprogramming efficiency, SKO (SKO plus Jhdm1a or Jhdm1b, vitamin C in inducing medium (50 μg/mL), FIG. 1) | effect of vitamin C on improvement of reprogramming efficiency, SKOM (SKOM plus Jhdm1a or Jhdm1b, vitamin C in inducing medium (50 μg/mL), FIG. 2) | induction of pluripotent stem cells with only SO, KO or Oct4 | efficiency of reprogramming (inducing pluripotent stem cells) mediated by SKO (FIG. 1) | efficiency of reprogramming (inducing pluripotent stem cells) mediated by SKOM (FIG. 2) | completion of reprogramming by combination with Oct4 alone (Oct4 + Jhdm1b (OB), common culture medium without vitamin C)
1 | O=C1O[C@H]([C@@H](O)CO)C(O)=C1O [vitamin C, reference compound] | achieves more significant effects | the improvement was more significant | the improvement was more significant | – | – | – | –
2 | B1 | – | – | – | acted together to enable the induction of pluripotent stem cells | obviously improved the efficiency of reprogramming | obviously improved the efficiency of reprogramming | –
3 | B2 | – | – | – | acted together to enable the induction of pluripotent stem cells | obviously improved the efficiency of reprogramming | obviously improved the efficiency of reprogramming | can complete reprogramming in a common culture medium
